Where a chain is given by its changes, count along the chain named. Read-outs that look alike come from different tables or passages of the source.
B1: D070 (antibody, V domains shown)
VH: EVQLVESGGGLVQPGGSLRLSCAASGFTFSSYEMNWVRQAPGKGLEWVSYISSSGSTIYYADSVKGRFTISRDNAKNSLYLQMNSLRAEDTAVYYCARVPRGYYDSSGYYYVGYYFDYWGQGTLVTVSS
VL: DIQLTQSPSFLSASVGDRVTITCRASQGISSYLAWYQQKPGKAPKLLIYAASTLQSGVPSRFSGSGSGTEFTLTISSLQPEDFATYYCQQLNSYTFTFGPGTKVDIK
B2: C2719 (antibody, V domains shown)
VH: EVQLVESGGGLIQPGGSLRLSCAASGFTVSSNYMSWVRQAPGKGLEWVSVIYSGGSTYYADSVKGRFTISRDNSKNTLYLQMNSLRAEDTAVYYCARDLGPYGMDVWGQGTTVTVSS
VL: B1 VL with T95P, F96P, T97E, F98I, P100Q, K103R, V104L, D105E
B3: B27 (antibody, V domains shown)
VH: EVKLEESGGGLVQPGGSMKLSCAASGFTFSDAWMDWVRQSPEKGLEWVAEIRNKANNHATYYAESVKGRFTISRDDSKSSVYLQMNSLRAEDTGIYYCTNYKYYAMDYWGQGTSVTVSS
VL: QIVLTQSPAIMSASPGEKVTMTCSASSSVSYMYWYQQKPGSSPRLLIYDTSNLASGVPVRFSGSGSGTSYSLTISRMEAEDAATYYCQQWSSYPLTFGAGTKLELK
B4: D046 (antibody, V domains shown)
VH: EVQLVESGGGLVQPGGSLRLSCAASGFTFSSYWMHWVRQAPGKGLVWVSRINSDGSSTSYADSVKGRFTISRDNAKNTLYLQMNSLRAEDTAVYYCARGVPHDYGDYESVILAGYYYYYYGMDVWGQGTTVTVSS
VL: not shown
B5: C2736 (antibody, V domains shown)
VH: QVQLVQSGAEVKKPGSSVKVSCKASGGTFSSYAISWVRQAPGQGLEWMGGIIPIFGTANYAQKFQGRVTITADESTSTAYMELSSLRSEDTAVYYCASCRYYYDSSGYAQPEDYFDYWGQGTLVTVSS
VL: QSVLTQPPSVSGAPGQRVTISCTGSSSNIGAGYDVHWYQQLPGTAPKLLIYGNSNRPSGVPDRFSGSKSGTSASLAITGLQAEDEADYYCQSYDSSLSGSHVVFGGGTKLTVL
B6: D049 (antibody, V domains shown)
VH: EVQLVQSGAEVKKPGESLKISCKGSGYSFISHWIGWVRQMPGKGLEWMGIIYPGDSDTRNSPSFQGQVTISADKSISTAYLQWSSLKASDTAMYYCARLLGSNYEVGFDYWGQGTLVTVSS
VL: not shown
B7: D064 (antibody, V domains shown)
VH: EVQLVQSGAEVKKPGESLKISCKGSGYSFTSYWIGWVRQMPGKGLEWMGIIYPGDSDTRYSPSFQGQVTISADKSISTAYLQWSSLKASDTAMYYCASHAGGYDFDYYYMDVWGKGTTVTVSS
VL: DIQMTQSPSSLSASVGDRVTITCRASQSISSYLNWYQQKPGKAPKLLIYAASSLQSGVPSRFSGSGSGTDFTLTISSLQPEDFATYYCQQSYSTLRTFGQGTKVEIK
B8: C2748 (antibody, V domains shown)
VH: QVQLVQSGAEVKKPGSSVKVSCKASGGTFTNYAISWVRQAPGQGLEWMGGIIPIFGTEDYAQRFQGRVTITADESTSTAYMELTSLTSEDTAVYFCARGLPLTVTTRRRFNFFDYWGQGTLVTVSS
VL: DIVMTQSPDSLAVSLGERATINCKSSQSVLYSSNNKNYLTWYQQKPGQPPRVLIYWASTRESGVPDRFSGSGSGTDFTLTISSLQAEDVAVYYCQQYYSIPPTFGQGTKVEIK
B9: A09 (antibody, V domains shown)
VH: QVQLQQPGAELVKPGASVKVSCKASGYTFTSYWMHWVKQRPGQGLEWIGRIHPSDSDTNYNQKFKGKATLTVDKSSSTAYMQLSSLTSEDSAVYSCARGMDYWGQGTSVTVSS
VL: DVVLTQTPLSLPVNIGDQASISCKSTKSLLNSVGFTYLDWYLQKPGQSPQLLIYLVSNRFSGVPDRFSGSGSGTDFTLKISRVEAEDLGVYYCFQSNYLPYTFGGGTKLEIK
B10: C2704 (antibody, V domains shown)
VH: EVQLVESGGDLVQPGGSLRLSCAASGFTFSTSWMHWVRQAPGKGLVWVSHINGDGSTTIYADSVKGRFTISRDNAKNTLYLQMNTLRAEDTAVYYCARNTGTHFDYWGQGTLVTVSS
VL: QSALTQPASVSGSPGQSITISCTGTSSDVGRYNYVSWYQQHPGKAPKVMIYDVSNRPSGVSNRFSGSKSGNTASLTISGLQAEDEADYYCSSYTSSSPWVFGGGTKLTVL
B11: D146 (antibody, V domains shown)
VH: QVQLVESGGGVVQPGRSLRLSCAASGFTFSSYGMHWVRQAPGKGLEWVAVISYDGSNKYYADSVKGRFTISRDNSKNTLYLQMNSLRAEDTAVYYCAKSLGSYCSSTSCYGGSFDYWGQGTLVTVSS
VL: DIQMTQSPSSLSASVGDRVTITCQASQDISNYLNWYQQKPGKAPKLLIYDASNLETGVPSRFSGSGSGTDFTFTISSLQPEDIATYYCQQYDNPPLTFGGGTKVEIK
B12: D147 (antibody, V domains shown)
VH: B11 VH with H35Y, S99G, L100G, S102E, S106G, T107G, S108N, G111S, G112S, S113Y
VL: not shown
B13: C2743 (antibody, V domains shown)
VH: QVQLVQSGAEVKKPGASVKVSCKASGYTFTSYGISWVRQAPGQGLEWMGWISAYNGNTNYAQKLQGRVTMTTDTSTSTAYMELRSLRSDDTAVYYCARDFGELATPLDYWGQGTLVTVSS
VL: EIVLTQSPATLSLSPGERATLSCRASQSVSSYLAWYQQKPGQAPRLLIYDASNRATGIPARFSGSGSGTDFTLTISSLEPEDFAVYYCQQRSNSLTFGGGTKVEIK
B14: D159 (antibody, V domains shown)
VH: QVQLVESGGGVVQPGGSLRLSCAASGFTFSTYGMHWVRQAPGKGLEWVAFIQYDGSNKYYADSVKGRFTISRDNSKNTLCLQMNTLRAEDTAVYYCAKDLYYYGSGSYFDYWGQGTLVTVSS
VL: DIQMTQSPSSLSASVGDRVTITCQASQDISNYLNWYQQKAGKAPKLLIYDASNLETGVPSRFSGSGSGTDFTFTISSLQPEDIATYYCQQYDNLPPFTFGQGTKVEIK
B15: D164 (antibody, V domains shown)
VH: QVQLVQSGAEVKKPGASVKVSCKASGYTFTSYYMHWVRQAPGQGLEWMGIINPSGGSTSYAQKFQGRVTMTRDTSTSTVYMELSSLRSEDTAVYYCARGGIVPAATENFDYWGQGTLVTVSS
VL: EIVLTQSPATLSLSPGERATLSCRASQSVSSYLAWYQQKPGQAPRLLIYDASNRATGIPARFSGSGSGTDFTLTISSLEPEDFAVYYCQQRSNWPITFGQGTRLEIK
B16: C2724 (antibody, V domains shown)
VH: not shown
VL: B15 VL with W94C, I96L, Q100G, R103K, L104V
B17: A47 (antibody, V domains shown)
VH: HVQLQQPGAELVKPGASVKVSCKASGYTFTSFWMHWVKQRPGQGLEWIGGIHPSDSDTNYNQKFKGKATLTVNKSSSTAYMQLSSLTSEDSAVYYCAIGDECANWGQGTLVTVSA
VL: DIVLTQSPASLAVSLGQRATISCRASKSVSTSGYSYMHWYQQKPGQPPKLLIYLASNLESGVPARFSGSGSGTDFTLNIHPVEEEDAATYYCHHSRELPFTFGSGTKLEIK
B18: A24 (antibody, V domains shown)
VH: DVQLQESGPGLVKPSQSLSLTCSVTGYSITSGYYWNWIRQFPGNKMEWMGYITYDGRNTYNPSPKNRLSITRDTSKNQFFLKLNSVTTEDTATYYCARCHYYGSSYAMDYWGQGTSVTVSS
VL: DIVMTQSHKFMSTSVGDRVSITCKASQDVSTAVAWYRQKPGQSPKLLIYWASTRHTGVPDRFTGSGSGTDYTLTISSVQPEDLALYYCQQHYTTPLTFGAGTKLELK
B19: D002 (antibody, V domains shown)
VH: EVQLVQSGAEVKKPGESLKISCKASGYNFTTSWIGWVRQMPGKGLEWMGIIYPGDFDTTYSPSFQGQVTISADKSISTAYLQWSSLKASDTAMYYCARVGPTAGTDGYNYLDWYFDLWGRGTLVTVSS
VL: SYELTQPPSVSVSPGQTARITCSGDALPKQFSYWYQQKPGQAPVLVIYKDNERPSGIPERFSGSSSGTTVTLTISGVQAEDEADYYCQSADSISWVFGGGTKLTVL
B20: C2727 (antibody, V domains shown)
VH: EVQLVESGGGLIQPGGSLRLSCAASGFTVSSNYMSWVRQAPGKGLEWVSVIYSGGSTYYADSVKGRFTISRDNSKNTLYLQMNSLRAEDTAVYYCAREGPQKTDWGQGTLVTVSS
VL: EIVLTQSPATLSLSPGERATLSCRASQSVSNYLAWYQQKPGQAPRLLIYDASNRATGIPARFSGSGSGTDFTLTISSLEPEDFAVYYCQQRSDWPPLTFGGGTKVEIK
B21: C2721 (antibody, V domains shown)
VH: B2 VH with L99M, P101G, Y102D, G103A, M104F, V106I, T112M
VL: DIQLTQSPSFLSASVGDRVTITCRASQGISSYLAWYQQKPGKAPKLLIYAASTLQSGVPSRFSGSGSGTEFTLTISSLQPEDFATYYCQQLNSYPFFGGGTKVEIK
B22: B05 (antibody, V domains shown)
VH: QVQLKQSGAELVRPGASVKLSCKASGYTFTDYYINWVKQRPGQGLEWIARIYPGSGNPYYNEKFKGKATLTAEKSSSTAYMQLSSLTSEDSAVYFCARRGTLLYAFAYWGQGTLVTVSA
VL: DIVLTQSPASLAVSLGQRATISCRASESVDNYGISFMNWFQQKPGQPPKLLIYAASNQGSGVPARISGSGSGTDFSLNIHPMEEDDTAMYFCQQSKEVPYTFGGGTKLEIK
B23: C2699 (antibody, V domains shown)
VH: QLQLQESGPGLVKPSETLSLTCTVSRGSISSSSYYWGWIRQPPGKGLEWIGSIYYSGNTYYNPSLKSRVTISVDTSNNQFFLKLSSVTAADTAVYYCARRPNSGWGYWYFDLWGRGTLVTVSS
VL: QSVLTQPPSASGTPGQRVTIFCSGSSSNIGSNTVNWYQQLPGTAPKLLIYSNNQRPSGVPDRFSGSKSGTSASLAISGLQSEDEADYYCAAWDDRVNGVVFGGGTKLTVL
B24: D051 (antibody, V domains shown)
VH: QVQLQQWGAGLLKPSETLSLTCAVYGGSFSDYYWTWIRQAPGKGLEWIGEINHSGSTNYNPSLKSRVTISVDTSKSQFSLSLTSVTAADTAVYYCARGRRYCNSLSCPYYFYFYMDVWDKGTTVTVSS
VL: DIQMTQSPSSVSASVGDRVTITCRASQGISSWLAWYQQKPGKAPKLLIYAASSLQSGVPSRFSGSGSGTDFTLTISSLQSEDFATYYCQQANSFPRTFGQGTRLEIK

How the values were obtained:
[1] = target: T1, SARS-CoV-2 spike RBD (WT) (Severe acute respiratory syndrome …, UniProt P0DTC2); test: BLI
[2] = target: T1, SARS-CoV-2 spike RBD (WT); test: ELISA; set-up: unit not given here
[3] = target: T1, SARS-CoV-2 spike RBD (WT); test: BLI; remark: listed apart in the source

| Binder | Kd [1] [nM] | binding score [2] | Kd [3] [nM] |
| --- | --- | --- | --- |
| B1 | 115 | 716 | – |
| B2 | 127 | 59.3 | – |
| B3 | – | – | 120 |
| B4 | 42.4 | 6.02 | – |
| B5 | 6.14 | 79.9 | – |
| B6 | 9.69 | 6.28 | – |
| B7 | 344 | 1230 | – |
| B8 | 2.4 | 11.7 | – |
| B9 | – | – | 30.2 |
| B10 | 205 | 410 | – |
| B11 | 98.1 | 574 | – |
| B12 | 94.2 | 7.89 | – |
| B13 | 18.5 | 14.3 | – |
| B14 | 16.9 | 59.9 | – |
| B15 | 194 | 63.2 | – |
| B16 | 174 | 604 | – |
| B17 | – | – | 142 |
| B18 | – | – | 205 |
| B19 | 465 | 3640 | – |
| B20 | 99.6 | 20 | – |
| B21 | 98.5 | 174 | – |
| B22 | – | – | 68.5 |
| B23 | 74 | 334 | – |
| B24 | 2240 | > 10000 | – |

— publication PMC9876794 (2022)
